# Tests used:
# [1] = target: prohibitin isoform 1 (human (endogenous in SH-SY5Y, U-87 MG, CHME-3)) (UniProt P35232)
# [2] = target: prohibitin-2 isoform 1 (human (endogenous in SH-SY5Y, U-87 MG, CHME-3)) (UniProt Q99623)
# [3] = target: prohibitin isoform 1 (human (endogenous in SH-SY5Y, U-87 MG, CHME-3)) (UniProt P35232); remark: listed apart in the source
# [4] = target: prohibitin-2 isoform 1 (human (endogenous in SH-SY5Y, U-87 MG, CHME-3)) (UniProt Q99623); remark: listed apart in the source
# [5] = target: prohibitin-2 isoform 1 (human (endogenous in SH-SY5Y, U-87 MG, CHME-3)) (UniProt Q99623); remark: listed apart in the source
# UniProt Q99623, sequence (Q99623 whole entry, canonical isoform): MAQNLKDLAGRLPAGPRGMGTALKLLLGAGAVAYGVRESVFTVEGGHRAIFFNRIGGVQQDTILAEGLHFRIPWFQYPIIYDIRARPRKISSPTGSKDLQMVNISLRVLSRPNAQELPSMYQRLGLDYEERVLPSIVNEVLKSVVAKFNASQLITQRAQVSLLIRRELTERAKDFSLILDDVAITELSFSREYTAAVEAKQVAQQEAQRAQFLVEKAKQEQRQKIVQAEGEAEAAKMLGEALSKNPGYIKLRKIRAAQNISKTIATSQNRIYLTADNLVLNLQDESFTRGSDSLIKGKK
# UniProt P35232, sequence (P35232 whole entry, canonical isoform): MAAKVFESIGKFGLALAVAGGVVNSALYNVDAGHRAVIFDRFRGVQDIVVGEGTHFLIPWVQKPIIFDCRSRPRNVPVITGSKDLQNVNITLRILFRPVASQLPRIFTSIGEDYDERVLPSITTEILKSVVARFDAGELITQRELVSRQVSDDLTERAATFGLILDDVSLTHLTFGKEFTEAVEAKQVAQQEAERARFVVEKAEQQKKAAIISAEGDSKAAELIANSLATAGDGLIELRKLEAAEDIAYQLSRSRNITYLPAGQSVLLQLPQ
substance,measurement,setting,value
"DENV-3 (16562), purified virus (complex)","% fluorescent (DENV-3 antigen) positive SH-SY5Y cells by IFA 30 h PI, cells pre-incubated with anti-PHB1 antibody, 1 to 2 μg (17 to 10%; virus control 40%, anti-actin control 35%)",[1],17%
same,"% fluorescent (DENV-3 antigen) positive SH-SY5Y cells by IFA 30 h PI, cells pre-incubated with anti-PHB2 antibody, 1 to 2 μg (11 to 6%; virus control 40%, anti-actin control 35%)",[2],11%
same,"reduction in DENV-3 plaques, CHME-3 cells pre-incubated with PHB1 antibody",[3],73.3%
same,"reduction in DENV-3 plaques, SH-SY5Y cells pre-incubated with anti-PHB1 antibody",[3],55%
same,"reduction in DENV-3 plaques, CHME-3 cells pre-incubated with PHB2 antibody",[4],82.2%
same,"reduction in DENV-3 plaques, SH-SY5Y cells pre-incubated with anti-PHB2 antibody",[4],75%
same,"entry assay: reduction in virus titre, CHME-3 cells with bound DENV-3 (MOI 100) treated with PHB2 polyclonal antibody at 37 °C for 1.5 h",[5],82%

# Reference: paper PMC7168832
